# Data from patent US20230025280A1, “PH RESPONSIVE COMPOSITIONS, FORMULATIONS, AND METHODS OF IMAGING A TUMOR” (ONCONANO MEDICINE, INC, priority 2019, published 2023).
# “And” between values parts separate entries of the source, which are not always exact repeats. Identical values can stand only once. “Also recorded” adds a separate entry of the source.
# What was measured:
# [1] = Stability of Compound 1 at long-term storage condition of −80° C.; format: physicochemical
# lymph node metastases = test: Lymph node imaging (PEARL) versus H/E staining; format: in vivo, human
# From the text: After lymph node dissection, lymph nodes were identified by the attending pathologist and harvested if present. After harvesting, the single lymph nodes were imaged before further processing using PEARL imaging. The images were processed using ImageJ (FiJi). The fluorescent images were reviewed by 2 separate researchers blinded for histology, whether fluorescence was present. The pathologist, blinded for fluorescence images, evaluated whether the lymph node was positive for tumor invasion or isolated tumor cells based on H/E staining.
# [2] = system: tumor positive surgical margins; test: Fluorescence detection of tumor positive surgical margins versus final histopathology; format: in vivo, human; design: key to Histology vs. Fluorescence Correlation: TP = true positive; TN = true negative; FP = false positive; settings: for Histology vs. Fluorescence Correlation / Surgical Margin by Fluorescence: per patient
# From the text: Tumor specimens were processed for histology according to the standard pathology practice used in clinical cancer care. Diagnosis on margins, selected histological features necessary for clinical decision making were provided. Fluorescence images were collected from the tumor and lymph node specimens and study-related biopsies. Margin width and number of positive margins were noted and correlated to the location of fluorescence in the margins. From this, the correlation between Compound 1 fluorescence and histopathology were calculated.
# In a total of 24 patients (HNSCC:13; BC:11), 9 patients (HNSCC:6; BC:3) had histologically confirmed tumor positive surgical margins that were undetected during SOC surgery. Fluorescence guided margin assessment was performed on a per-patient basis. Compound 1 imaging visualized all of these surgical margin patients yielding 100% sensitivity. […] There were 5 of 15 false positives (specificity of 67%), in which fluorescence detected tissue was not confirmed to be tumor by histopathological assessment. 5 of 14 (36%) patients had fluorescent tissues that were negative for tumor (PPV: 64%).
# In this Phase 1 study, the intraoperative and postoperative imaging data was used for a preliminary analysis of the diagnostic performance of Compound 1. Performance parameters such as MFI, CNR, and TBR were calculated in vivo and in tissue slices to characterize the ability of Compound 1 to delineate tumor tissue from background. Sensitivity and specificity for detecting tumor tissue from the adjacent normal tissue was evaluated using tissue specimen fluorescence and presented as a ROC curve. The sensitivity, specificity, and PPV of Compound 1 fluorescence in detecting pathology confirmed tumor positive margins were obtained at the patient level.
# [3] = Phase 1 safety assessment; format: in vivo, human
# Description: Phase 1a was a dose-finding study performed in 5 cohorts of 3 patients each. The dose levels evaluated were […], and 1.2 mg/kg, in this sequence. Inter-cohort dose escalation took place after the last patient in the previous cohort completed the Day 10 safety assessment. Safety, PK, and imaging feasibility were evaluated in both the Phase 1a and 1b portions of the study. Patient safety is assessed during the study and for up to 10 days post-dose.
# [4] = 403 lymph nodes across 4 tumor types
# [5] = TOTAL of all patients, 403 lymph nodes
# [6] = lymph nodes per patient, fluorescence vs H/E pathology
# [7] = 24 patients (HNSCC:13; BC:11), per-patient
substance,measurement,setting,value
PEO90-140-b-P(DBA60-150-r-ICG0-3-r-AMA0-3) [Compound 1],% ICG 784 nm (% wt),[1]; 0 months,1.3%
same,Appearance,[1]; 0 months,Pass
same,Assay RID - Polymeric Content SEC (% wt),[1]; 0 months,96.4%
same,Content 784 nm (% wt),[1]; 0 months,80.9%
same,Identification - SEC (RT),[1]; 0 months,Pass
same,Impurities Specified: ICG-like,[1]; 0 months,1.9%
same,Microbial Limits Total aerobic count,[1]; 0 months,<1 cfu/mg
same,Microbial Limits Total yeast and mold,[1]; 0 months,<1 cfu/mg
same,Total Impurities,[1]; 0 months,1.9%
same,Water Content,[1]; 0 months,0.48%
same,Duration stable at long-term storage condition,"[1]; 3.0 mg/mL injection, the duration thus far",up to 24 months
same,% ICG 784 nm (% wt),[1]; 1 month,1.4%
same,Appearance,[1]; 1 month,Pass
same,Assay RID - Polymeric Content SEC (% wt),[1]; 1 month,98.5%
same,Content 784 nm (% wt),[1]; 1 month,82.0%
same,Identification - SEC (RT),[1]; 1 month,Pass
same,Impurities Specified: ICG-like,[1]; 1 month,1.8%
same,Total Impurities,[1]; 1 month,1.8%
same,Water Content,[1]; 1 month,0.33%
same,% ICG 784 nm (% wt),[1]; 6 months,1.4%
same,Appearance,[1]; 6 months,Pass
same,Assay RID - Polymeric Content SEC (% wt),[1]; 6 months,102.3%
same,Content 784 nm (% wt),[1]; 6 months,86.2%
same,Identification - SEC (RT),[1]; 6 months,Pass
same,Impurities Specified: ICG-like,[1]; 6 months,1.7%
same,Total Impurities,[1]; 6 months,1.7%
same,Water Content,[1]; 6 months,0.54%
same,% ICG 784 nm (% wt),[1]; 12 months,1.3%
same,Appearance,[1]; 12 months,Pass
same,Assay RID - Polymeric Content SEC (% wt),[1]; 12 months,90.4%
same,Content 784 nm (% wt),[1]; 12 months,74.7%
same,Identification - SEC (RT),[1]; 12 months,Pass
same,Impurities Specified: ICG-like,[1]; 12 months,1.7%
same,Microbial Limits Total aerobic count,[1]; 12 months,<1 cfu/mg
same,Microbial Limits Total yeast and mold,[1]; 12 months,<1 cfu/mg
same,Total Impurities,[1]; 12 months,1.7%
same,Water Content,[1]; 12 months,0.74%
same,% ICG 784 nm (% wt),[1]; 18 months,1.5%
same,Appearance,[1]; 18 months,Pass
same,Assay RID - Polymeric Content SEC (% wt),[1]; 18 months,100.4%
same,Content 784 nm (% wt),[1]; 18 months,94.7%
same,Identification - SEC (RT),[1]; 18 months,Pass
same,Impurities Specified: ICG-like,[1]; 18 months,0.6%
same,Total Impurities,[1]; 18 months,0.6%
same,Water Content,[1]; 18 months,0.64%
same,% ICG 784 nm (% wt),[1]; 24 months,1.5%
same,Appearance,[1]; 24 months,Pass
same,Assay RID - Polymeric Content SEC (% wt),[1]; 24 months,99.7%
same,Content 784 nm (% wt),[1]; 24 months,98.1%
same,Identification - SEC (RT),[1]; 24 months,Pass
same,Impurities Specified: ICG-like,[1]; 24 months,0.6%
same,Microbial Limits Total aerobic count,[1]; 24 months,<1 cfu/mg
same,Microbial Limits Total yeast and mold,[1]; 24 months,<1 cfu/mg
same,Total Impurities,[1]; 24 months,0.6%
same,Water Content,[1]; 24 months,0.51%
same,Overall sensitivity in lymph nodes,lymph node metastases; 30/(30+34),0.47
same,Overall specificity in lymph nodes,lymph node metastases; 293/(46+293),0.86
same,Lymph nodes fluorescence negative / H/E negative,lymph node metastases; [4],293 of 339 and 293
same,Lymph nodes fluorescence negative / H/E positive,lymph node metastases; [4],34
same,"Lymph nodes fluorescence negative, TOTAL",lymph node metastases; [4],327
same,Lymph nodes fluorescence positive / H/E negative,lymph node metastases; [4],46
same,Lymph nodes fluorescence positive / H/E positive,lymph node metastases; [4],30
same,"Lymph nodes fluorescence positive, TOTAL",lymph node metastases; [4],76
same,False Negatives n,lymph node metastases; [5],34
same,False Positives n,lymph node metastases; [5],46
same,True Negatives n,lymph node metastases; [5],293
same,True Positives n,lymph node metastases; [5],30
same,False Negatives n,lymph node metastases; [6],0 (23×) and 1 (4×) and 3 and 2 and 25
same,False Positives n,lymph node metastases; [6],0 (12×) and 3 (4×) and 1 (9×) and 4 and 2 (2×) and 6 and 11
same,True Negatives n,lymph node metastases; [6],0 (12×) and 50 and 14 (2×) and 7 and 44 and 20 and 2 (3×) and 34 and 1 (2×) and 15 and 41 and 8 and 16 and 18 and 4
same,True Positives n,lymph node metastases; [6],2 (2×) and 0 (22×) and 1 (4×) and 12 and 10
same,Histology vs. Fluorescence Correlation,"[2]; 0.1 mg/kg, HNSCC",TP (2×) and TN
same,Surgical Margin by Fluorescence,"[2]; 0.1 mg/kg, HNSCC",Positive; also recorded: Negative
same,Histology vs. Fluorescence Correlation,"[2]; 0.3 mg/kg, BC",TP and TN (2×)
same,Surgical Margin by Fluorescence,"[2]; 0.3 mg/kg, BC",Positive; also recorded: Negative
same,Histology vs. Fluorescence Correlation,"[2]; 0.5 mg/kg, BC",TN
same,Surgical Margin by Fluorescence,"[2]; 0.5 mg/kg, BC",Negative
same,Histology vs. Fluorescence Correlation,"[2]; 0.5 mg/kg, HNSCC",TN and TP
same,Surgical Margin by Fluorescence,"[2]; 0.5 mg/kg, HNSCC",Negative; also recorded: Positive
same,Histology vs. Fluorescence Correlation,"[2]; 0.8 mg/kg, BC",TN and TP
same,Surgical Margin by Fluorescence,"[2]; 0.8 mg/kg, BC",Negative; also recorded: Positive
same,Histology vs. Fluorescence Correlation,"[2]; 0.8 mg/kg, HNSCC",FP
same,Surgical Margin by Fluorescence,"[2]; 0.8 mg/kg, HNSCC",Positive
same,Histology vs. Fluorescence Correlation,"[2]; 1.2 mg/kg, BC",TN (2×) and FP (2×) and TP
same,Surgical Margin by Fluorescence,"[2]; 1.2 mg/kg, BC",Negative; also recorded: Positive
same,Histology vs. Fluorescence Correlation,"[2]; 1.2 mg/kg, CRC",TN
same,Surgical Margin by Fluorescence,"[2]; 1.2 mg/kg, CRC",Negative
same,Histology vs. Fluorescence Correlation,"[2]; 1.2 mg/kg, EC",TN
same,Histology vs. Fluorescence Correlation,"[2]; 1.2 mg/kg, HNSCC",TP (3×) and FP (2×) and TN (2×)
same,Surgical Margin by Fluorescence,"[2]; 1.2 mg/kg, HNSCC",Positive; also recorded: Negative
same,Fluorescence in patients with histologically negative margin,[2]; 2 of 3 EC and 1 of 3 CRC patients,negative
same,PPV for surgical margin patients,[2]; [7],64%
same,Sensitivity for tumor positive surgical margin patients,[2]; [7],100%
same,Specificity for surgical margin patients,[2]; [7],67%
same,Patients with false positive fluorescence margins,[2]; BC,2
same,Sensitivity for positive margin patients,[2]; BC,100%
same,Specificity for positive margin patients,[2]; BC,75%
same,Patients with false positive fluorescence margins,[2]; HNSCC,3
same,Sensitivity for positive margin patients,[2]; HNSCC,100%
same,Specificity for positive margin patients,[2]; HNSCC,57%
same,False negatives in surgical margin detection,[2]; HNSCC and BC,no false negatives
same,False positives (fluorescent tissue not confirmed tumor by histopathology),"[2]; HNSCC and BC, per-patient",5 of 15
same,Histologically proven tumor positive surgical margins detected,"[2]; HNSCC:6, BC:3",9 out of 9 and 9
same,Safety profile,"[3]; Phase 1a, 0.1 to 1.2 mg/kg",comparable at all the dose levels studied and did not raise any specific safety concerns
same,Tolerability,"[3]; Phase 1b, 1.2 mg/kg",well tolerated
